Reference: FireProtDB (doi:10.1002/pro.5560010709)

Conditions: Bos taurus; pH 4.2; Thermal; CD; Sodium acetate 0.01 M; NaCl 0.1 M; reversible: yes; whole UniProt chain shown

B1: Ribonuclease pancreatic wild type, P61823 (protein)
chain: MALKSLVLLSLLVLVLLLVRVQPSLGKETAAAKFERQHMDSSTSAASSSNYCNQMMKSRNLTKDRCKPVNTFVHESLADVQAVCSQKNVACKNGQTNCYQSYSTMSITDCRETGSSKYPNCAYKTTQANKHIIVACEGNPYVPVHFDASV
  Tm: 56 °C
